What was measured:
[1] = target: endogenously expressed human MSR1 on PMA-treated THP-1 cells (human) (UniProt P21757); assay: ECL cell binding, PMA-treated THP-1 cells
[2] = target: full length human MSR1 with a C-terminal Myc tag on HEK293.Myc.hMSR1 cells (human) (UniProt P21757); assay: ECL cell binding, HEK293.Myc.hMSR1 cells
[3] = target: full length monkey MSR1 on HEK293.mfMSR1 cells (Macaca fascicularis); assay: ECL cell binding, HEK293.mfMSR1 cells
[4] = target: human MSR1 endogenously expressed on PMA-differentiated THP-1 cells (human) (UniProt P21757); assay: confocal imaging, 10 µg/mL antibody + Alexa Fluor 488 secondary on PMA-differentiated THP-1 cells
Sequence of human MSR1 endogenously expressed on PMA-differentiated THP-1 cells (human) (P21757 whole entry, the tested form may be a part): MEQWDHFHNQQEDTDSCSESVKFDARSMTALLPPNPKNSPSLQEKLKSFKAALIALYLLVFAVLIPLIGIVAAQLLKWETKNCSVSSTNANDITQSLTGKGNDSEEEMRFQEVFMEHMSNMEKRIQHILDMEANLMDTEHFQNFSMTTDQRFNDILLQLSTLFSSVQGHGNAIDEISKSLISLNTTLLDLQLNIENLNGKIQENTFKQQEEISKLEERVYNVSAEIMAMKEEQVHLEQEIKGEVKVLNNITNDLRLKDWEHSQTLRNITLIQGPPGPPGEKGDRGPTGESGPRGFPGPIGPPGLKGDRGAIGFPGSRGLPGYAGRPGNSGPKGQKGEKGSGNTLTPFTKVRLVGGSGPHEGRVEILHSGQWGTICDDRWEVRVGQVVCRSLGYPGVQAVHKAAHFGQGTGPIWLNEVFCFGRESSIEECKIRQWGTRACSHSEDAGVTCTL

[5] = target: human MSR1 extracellular domain expressed with a N-terminal nonahistidine tag (His9-hMSR1; R&D Systems, Cat #2708-MS) (human) (UniProt P21757); assay: competition ELISA; 300 nM antibody, competitor biot-AGE-BSA, plate-coated His9-hMSR1
Sequence of human MSR1 extracellular domain expressed with a N-terminal nonahistidine tag (His9-hMSR1; R&D Systems, Cat #2708-MS) (human) (P21757 other isoform, or with tags, fused parts or gaps): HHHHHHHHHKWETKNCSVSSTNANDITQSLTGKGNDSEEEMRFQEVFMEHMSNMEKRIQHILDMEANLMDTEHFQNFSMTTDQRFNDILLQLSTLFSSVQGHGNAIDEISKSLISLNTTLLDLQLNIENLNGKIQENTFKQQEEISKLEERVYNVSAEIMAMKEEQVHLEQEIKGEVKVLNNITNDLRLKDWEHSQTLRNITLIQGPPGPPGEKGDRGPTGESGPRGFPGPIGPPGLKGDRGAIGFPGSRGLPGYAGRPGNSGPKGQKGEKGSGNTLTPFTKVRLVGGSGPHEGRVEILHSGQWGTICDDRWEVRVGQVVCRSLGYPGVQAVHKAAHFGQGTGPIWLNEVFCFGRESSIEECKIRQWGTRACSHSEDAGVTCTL

[6] = target: human MSR1 extracellular domain expressed with a N-terminal nonahistidine tag (His9-hMSR1; R&D Systems, Cat #2708-MS) (human) (UniProt P21757); assay: competition ELISA; 100 nM antibody, competitor Ac-LDL, plate-coated His9-hMSR1
[7] = target: human MSR1 extracellular domain expressed with a N-terminal nonahistidine tag (His9-hMSR1; R&D Systems, Cat #2708-MS) (human) (UniProt P21757); assay: competition ELISA; 1 µM antibody, competitor 10 nM Ox-LDL, plate-coated His9-hMSR1
[8] = target: mouse MSR1 on RAW264.7 cells (mouse) (UniProt P30204); assay: flow cytometry, RAW264.7 cells, 10 ug/mL
Sequence of mouse MSR1 on RAW264.7 cells (mouse) (P30204 whole entry): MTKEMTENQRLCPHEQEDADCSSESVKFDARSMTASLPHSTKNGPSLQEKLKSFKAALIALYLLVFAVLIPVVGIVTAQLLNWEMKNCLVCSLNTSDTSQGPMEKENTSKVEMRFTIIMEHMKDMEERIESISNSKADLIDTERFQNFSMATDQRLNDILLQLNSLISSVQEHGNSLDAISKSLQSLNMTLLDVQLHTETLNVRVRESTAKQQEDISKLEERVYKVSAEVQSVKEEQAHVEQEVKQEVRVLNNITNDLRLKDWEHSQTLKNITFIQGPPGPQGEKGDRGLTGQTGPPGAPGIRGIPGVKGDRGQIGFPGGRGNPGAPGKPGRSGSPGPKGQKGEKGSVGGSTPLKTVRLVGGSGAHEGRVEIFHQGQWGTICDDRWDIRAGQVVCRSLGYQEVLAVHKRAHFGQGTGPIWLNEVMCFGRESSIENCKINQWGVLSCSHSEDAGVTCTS

Sequence of full length monkey MSR1 on HEK293.mfMSR1 cells (Macaca fascicularis) (chain, as listed by the source): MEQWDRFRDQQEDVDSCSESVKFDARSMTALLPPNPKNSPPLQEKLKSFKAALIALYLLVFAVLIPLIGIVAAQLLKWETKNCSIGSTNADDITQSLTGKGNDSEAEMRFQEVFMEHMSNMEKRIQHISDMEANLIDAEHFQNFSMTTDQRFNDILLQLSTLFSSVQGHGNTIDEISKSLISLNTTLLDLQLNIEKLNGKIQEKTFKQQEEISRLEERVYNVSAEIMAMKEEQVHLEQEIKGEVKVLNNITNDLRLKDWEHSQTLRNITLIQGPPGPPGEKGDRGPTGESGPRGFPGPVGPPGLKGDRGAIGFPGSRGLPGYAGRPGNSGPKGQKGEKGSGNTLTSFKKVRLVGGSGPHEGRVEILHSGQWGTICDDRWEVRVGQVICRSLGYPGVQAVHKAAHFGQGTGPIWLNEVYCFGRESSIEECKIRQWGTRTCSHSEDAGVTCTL
Sequence of endogenously expressed human MSR1 on PMA-treated THP-1 cells (human) (P21757 whole entry): as the sequence (P21757 whole entry, the tested form may be a part) above
Sequence of full length human MSR1 with a C-terminal Myc tag on HEK293.Myc.hMSR1 cells (human) (P21757 whole entry): as the sequence (P21757 whole entry, the tested form may be a part) above

Row | Substance | ratio of 11 nM antibody binding signal (RLU) to isotype control [1] | ratio of 11 nM antibody binding signal (RLU) to isotype control [2] | ratio of 11 nM antibody binding signal (RLU) to isotype control [3] | % Blocking [5] | % Blocking [6] | % Blocking [7] | other results
1 | Isotype control (Table 19) (antibody) |  |  |  |  |  |  | Total Binding at 4° C. (RFU) [4]: 186000 RFU; Total Binding at 37° C. (RFU) [4]: 1.09e+06 RFU
2 | Mouse IgG1 Isotype control mAb (antibody) |  |  |  | 7% | -4% | 16% | 
3 | Human IgG1 Isotype Control mAb (antibody) |  |  |  | 4% | -8% | 3% | 
4 | commercial anti-mouse MSR1 antibody (Sino Biological, Cat #50129-R004) |  |  |  |  |  |  | MFI [8]: 245000; S/N [8]: 97

Continued, in another order:

Row | ratio of 11 nM antibody binding signal (RLU) to isotype control [1] | ratio of 11 nM antibody binding signal (RLU) to isotype control [2] | ratio of 11 nM antibody binding signal (RLU) to isotype control [3] | % Blocking [5] | % Blocking [6] | % Blocking [7] | Substance | other results
5 | 1 | 1 | 1 |  |  |  | mIgG Isotype Control (antibody) | 
6 | 1 | 1 | 1 |  |  |  | hIgG1 Isotype Control (antibody) | 
